As a reminder, the koff is the first-order rate constant of dissociation. The term Kd denotes the concentration at which binding is half-saturated.

Numbering of substitutions follows the chain as printed. Like-named read-outs stand apart in the source and are kept apart here.

In assay [1] the target is T1, mAng2.
T1 construct: also called mouse Ang2
T1 chain: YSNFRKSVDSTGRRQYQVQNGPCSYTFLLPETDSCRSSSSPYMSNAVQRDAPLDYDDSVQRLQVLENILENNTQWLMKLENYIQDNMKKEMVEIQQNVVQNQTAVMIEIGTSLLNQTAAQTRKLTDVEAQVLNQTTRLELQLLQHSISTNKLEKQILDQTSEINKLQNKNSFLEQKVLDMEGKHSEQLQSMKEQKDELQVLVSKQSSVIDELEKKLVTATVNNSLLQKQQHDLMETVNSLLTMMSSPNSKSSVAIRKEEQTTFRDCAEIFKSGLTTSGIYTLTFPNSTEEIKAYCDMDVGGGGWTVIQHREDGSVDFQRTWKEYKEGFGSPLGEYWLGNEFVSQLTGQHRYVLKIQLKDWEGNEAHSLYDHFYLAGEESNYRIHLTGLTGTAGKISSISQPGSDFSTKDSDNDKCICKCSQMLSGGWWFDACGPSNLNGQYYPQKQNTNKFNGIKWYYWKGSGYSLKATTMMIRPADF
Kind of assay: competition ELISA, blocking of mAng2 binding to mTie2. For orientation: ELISA stands for enzyme-linked immunosorbent assay.

For assay [2], the target named is T2, hAng2.
T2 construct: also called human Ang2
T2 chain: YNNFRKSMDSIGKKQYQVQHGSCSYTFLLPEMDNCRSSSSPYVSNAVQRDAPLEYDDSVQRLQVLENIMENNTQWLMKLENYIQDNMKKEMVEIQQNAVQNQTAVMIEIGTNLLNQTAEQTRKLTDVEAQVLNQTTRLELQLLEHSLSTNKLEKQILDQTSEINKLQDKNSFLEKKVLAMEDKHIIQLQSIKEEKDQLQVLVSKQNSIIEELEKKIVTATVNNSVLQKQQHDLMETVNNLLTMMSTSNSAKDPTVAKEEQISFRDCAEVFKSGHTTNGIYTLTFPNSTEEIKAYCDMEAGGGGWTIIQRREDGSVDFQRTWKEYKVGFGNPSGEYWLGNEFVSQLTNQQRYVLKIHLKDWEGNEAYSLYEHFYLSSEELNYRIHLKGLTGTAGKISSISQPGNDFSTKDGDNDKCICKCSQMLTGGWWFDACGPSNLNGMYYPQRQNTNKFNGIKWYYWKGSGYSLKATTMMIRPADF
Kind of assay: competition ELISA, blocking of hAng2 binding to hTie2.

The target in assay [3] is T3, cAng2 (cynomolgus monkey).
T3 construct: also called cyno Ang2
Kind of assay: competition ELISA, blocking of cAng2 binding to cTie2.

The target of the next assay is T4, human VEGFR2-Fc chimera (human, UniProt P35968 20-764).
T4 construct: bought (R&D Systems); also called hVEGFR2-Fc; VEGFR2-huFc
T4 sequence (P35968 20-764, change not shown): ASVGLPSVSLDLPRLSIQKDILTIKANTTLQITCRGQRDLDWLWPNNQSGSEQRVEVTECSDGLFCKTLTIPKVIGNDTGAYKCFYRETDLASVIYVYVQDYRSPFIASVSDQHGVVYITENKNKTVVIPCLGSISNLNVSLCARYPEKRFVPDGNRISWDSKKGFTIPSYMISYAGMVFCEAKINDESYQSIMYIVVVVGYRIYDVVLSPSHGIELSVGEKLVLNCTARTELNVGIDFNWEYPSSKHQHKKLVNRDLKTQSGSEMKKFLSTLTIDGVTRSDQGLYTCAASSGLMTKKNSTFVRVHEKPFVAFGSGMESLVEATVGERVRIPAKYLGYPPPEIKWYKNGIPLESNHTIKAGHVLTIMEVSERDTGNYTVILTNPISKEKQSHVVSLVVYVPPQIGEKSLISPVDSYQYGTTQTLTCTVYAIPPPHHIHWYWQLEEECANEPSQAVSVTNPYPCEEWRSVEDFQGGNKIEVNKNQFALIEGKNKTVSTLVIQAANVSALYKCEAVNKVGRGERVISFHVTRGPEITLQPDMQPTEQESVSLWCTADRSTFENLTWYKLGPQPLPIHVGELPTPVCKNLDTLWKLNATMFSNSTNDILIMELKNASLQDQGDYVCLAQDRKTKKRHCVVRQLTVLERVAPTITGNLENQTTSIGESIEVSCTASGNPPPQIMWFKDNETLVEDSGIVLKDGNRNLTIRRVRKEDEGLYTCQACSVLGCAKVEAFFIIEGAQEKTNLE
Kind of assay: binding ELISA on coated human VEGF121. As for the experimental part: Binding to recombinant human VEGF121 is assessed via a solid phase binding ELISA. Briefly, recombinant human VEGF121 (R&D Systems, Minneapolis, Minn., USA) is coated overnight at 4° C. at 1 μg/mL in a 96-well MaxiSorp plate (Nunc, Wiesbaden, Germany). Wells are blocked with a casein solution (1% in PBS).

For assay [4], the target named is T1, mAng2. Kind of assay: competition ELISA, blocking of mAng2 binding to mTie2.
The target of assay [5] is T3, cAng2. Kind of assay: competition ELISA, blocking of cAng2 binding to cTie2. The source holds these as a separate data set.
The target of assay [6] is T2, hAng2. Kind of assay: competition ELISA, blocking of hAng2 binding to hTie2.
Assay [7] has as its target T5, cAng2 (cynomolgus monkey).
T5 construct: may be the same protein as m21 (cyno Ang2-FLD); also called cyno Ang2
Kind of assay: competition ELISA, blocking of cAng2 binding to cTie2-Fc.

For assay [8], the target named is T6, hAng2.
T6 chain: T2 chain
Kind of assay: cell-based or functional assay.

For assay [9], the target named is T6, hAng2. Kind of assay: competition ELISA, blocking of hAng2 binding to hTie2-Fc.
For assay [10], the target named is T7, mAng2.
T7 construct: may be the same protein as m22 (mouse Ang2-FLD); also called mouse Ang2
T7 chain: T1 chain
Kind of assay: competition ELISA, blocking of mAng2 binding to mTie2-Fc.

For assay [11], the target named is T8, recombinant human VEGF165 (human, UniProt P15692-4 27-191).
T8 construct: also called hVEGF165; rhVEGF165
T8 sequence (P15692 other isoform, or with tags, fused parts or gaps limits assumed): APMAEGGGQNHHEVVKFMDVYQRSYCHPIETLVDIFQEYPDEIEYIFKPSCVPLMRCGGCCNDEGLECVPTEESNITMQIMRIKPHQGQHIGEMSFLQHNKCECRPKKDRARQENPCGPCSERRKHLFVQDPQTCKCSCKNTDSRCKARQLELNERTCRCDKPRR
Kind of assay: ProteOn, periplasmic extract 1/10 on hVEGF165 chip. From the text:
One additional variant is constructed in which the potential oxidation site at position M30 (CDR1 region, see FIG. 19 indicated as bold italic residue) is removed by introduction of a M30I mutation.

For assay [12], the target named is T8, recombinant human VEGF165. Kind of assay: Biacore on VEGF165 (see Example 5.5). On the procedure:
Samples are injected for 2 min and allowed to dissociate up to 20 min at a flow rate of 45 μI/min. In between sample injections, the chip surface is regenerated with 100 mM HCl. HBS-EP+(Hepes buffer pH7.4+EDTA) is used as running buffer. Binding curves are fitted using a Two State Reaction model by Biacore T100 Evaluation Software v2.0.1.
Affinity of VEGFBII032 is determined by Biacore (see Example 5.5) and the melting temperature is determined in the thermal shift assay as described above.
Background: Surface plasmon resonance follows binding to a sensor surface in real time, without labels.

The target in assay [13] is T9, hAng2.
T9 construct: also called human Ang2
T9 chain: T2 chain
Kind of assay: competition ELISA hAng2/hTie2-Fc; blocked: hTie2-Fc. On the procedure:
The human assay is also performed after incubation of the VHH with 0.5 μM human serum albumin. Additionally, a hAng2 mediated HUVEC survival assay is performed (see Example 5.5; FIG. 29).

Assay [14] concerns the target T5, cAng2. Kind of assay: competition ELISA, blocking of cAng2 binding to cTie2-Fc. This is another data set of the same source.
Assay [15] has as its target T6, hAng2. Kind of assay: competition ELISA, blocking of hAng2 binding to hTie2-Fc.
The target in assay [16] is T7, mAng2. Kind of assay: competition ELISA, blocking of mAng2 binding to mTie2-Fc.
Assay [17] deals with T6, hAng2. Kind of assay: cell-based or functional assay.
Assay [18] addresses T9, hAng2. Kind of assay: competition ELISA hAng2/hTie2-Fc; blocked: hTie2-Fc.
In assay [19] the target is T10, cAng2 (cynomolgus monkey).
T10 construct: construct not given; also called cyno Ang2
Kind of assay: competition ELISA cAng2/cTie2-Fc; blocked: cTie2-Fc.

The target in assay [20] is T11, mAng2.
T11 construct: also called mouse Ang2
T11 chain: T1 chain
Kind of assay: competition ELISA mAng2/mTie2-Fc; blocked: mTie2-Fc.

In assay [21] the target is T10, cAng2. Kind of assay: competition ELISA cAng2/cTie2-Fc; blocked: cTie2-Fc. This is another data set of the same source.
Assay [22] addresses T11, mAng2. Kind of assay: competition ELISA mAng2/mTie2-Fc; blocked: mTie2-Fc.
Assay [23] deals with T11, mAng2. The description is as above.
Assay [24] has as its target T10, cAng2. Kind of assay: competition ELISA cAng2/cTie2-Fc; blocked: cTie2-Fc. The source holds these as a separate data set.

B1: ANGBII00001 (VHH)
bivalent VHH: EVQLVESGGGLVQAGGSLRLSCAASGFTFDDYALGWFRQAAGKEREGVSCIRCSDGSTYYADSVKGRFTISSDNAKNTVYLQMNSLKPEDTAVYYCAASIVPRSKLEPYEYDAWGQGTLVTVSSGGGGSGGGSEVQLVESGGGLVQAGGSLRLSCAASGFTFDDYALGWFRQAAGKEREGVSCIRCSDGSTYYADSVKGRFTISSDNAKNTVYLQMNSLKPEDTAVYYCAASIVPRSKLEPYEYDAWGQGTLVTVSS
notes: homodimeric anti-Ang2 VHH; also called 1D01-9gs-1D01
For the molecule B1, the entries for the “IC50 (read off the curve)” value with mAng2 [1], in the assay with hAng2 [2] and with cAng2 [3] were roughly 0.02 nM, roughly 0.01 nM and roughly 0.03 nM, respectively.

B2: recombinant human VEGF121 (ligand, UniProt P15692-9 27-147, looked up)
chain: APMAEGGGQNHHEVVKFMDVYQRSYCHPIETLVDIFQEYPDEIEYIFKPSCVPLMRCGGCCNDEGLECVPTEESNITMQIMRIKPHQGQHIGEMSFLQHNKCECRPKKDRARQEKCDKPRR
notes: also called rhVEGF121; hVEGF121
Consider B2, for which the binding result with human VEGFR2-Fc chimera was “binds”.

B3: ANGBII00006 (VHH)
bivalent VHH: EVQLVESGGGLVQPGGSLRLSCAASGITLDDYAIGWFRQAPGKEREGVSSIRDNGGSTYYADSVKGRFTISSDNSKNTVYLQMNSLRPEDTAVYYCAAVPAGRLRYGEQWYPIYEYDAWGQGTLVTVSSGGGGSGGGSEVQLLESGGGLVQPGGSLRLSCAASGITLDDYAIGWFRQAPGKEREGVSSIRDNGGSTYYADSVKGRFTISSDNSKNTVYLQMNSLRPEDTAVYYCAAVPAGRLRYGEQWYPIYEYDAWGQGTLVTVSS
notes: homodimeric anti-Ang2 VHH; also called 00908-9gs-00908
As for B3, the entries for the “IC50 (read off the curve)” value with mAng2 [4], with cAng2 [5] and with hAng2 [6] were roughly 0.03 nM, roughly 0.03 nM and roughly 0.02 nM, respectively.

B4: 00938 (VHH)
VHH: EVQLVESGGGLVQPGGSLRLSCAVSGITLDDYAIGWFRQAPGKEREGVSAIRSSGGSTYYADSVKGRFTISSDNSKNTVYLQMNSLRPEDTAVYYCAAVPAGRLRYGEQWYPIYEYDAWGQGTLVTVSS
In the case of B4, the “IC50 (read off the curve)” value with cAng2 [7] was roughly 0.09 nM; in the assay with hAng2 [9] it was roughly 0.04 nM; with mAng2 [10], roughly 0.05 nM. For the same molecule, the “IC50 (read off the curve), hAng2 mediated HUVEC survival” value with hAng2 [8] was roughly 5 nM.

B5: 00908 (VHH)
VHH: B4 VHH with V24A, A50S, S53D, S54N
notes: also called F009100908
B5: the “IC50 (read off the curve)” value with mAng2 [4] is roughly 0.1 nM; with cAng2 [5] it was roughly 0.08 nM; in the assay with hAng2 [6], roughly 0.04 nM.

B6: VEGFBII05B05 (VHH)
VHH: EVQLVESGGGLVQPGGSLRLSCVASGIRFMSMAWYRQAPGKHRELVARISSGGTTAYVDSVKGRFTISRDNSKNTVYLQMNSLKAEDTAVYYCNTFSSRPNPWGAGTQVTVSS
notes: also called VEGFBII5B05; VEGFBII5B05(wt)
As to B6, in assay [11], the “Binding level (RU)” value came out at 242 RU and the koff came to 0.0615 s⁻¹. In addition, the Kd in assay [12] turned out to be 32 nM.

B7: VEGFBII032 (VHH)
VHH: B6 VHH with V23A, M30I, H42Q, V58A, K84R, A105Q, Q108L
notes: also called VEGFBII0032
As to B7, the dissociation constant Kd in [12] is 44 nM.

B8: 7G08 (VHH)
VHH: EVQLVESGGGLVQPGGSLRLSCAASGFALDYYAIGWFRQVPGKEREGVSCISSSDGITYYVDSVKGRFTISRDNAKNTVYLQMNSLKPEDTAVYYCATDSGGYIDYDCMGLGYDYWGQGTQVTVSS
With B8, the “IC50 (read off the curve)” value with hAng2 [13] was roughly 0.1 nM.

B9: 00921 (VHH)
VHH: EVQLVESGGGLVQPGGSLRLSCAASGFTFDDYALGWFRQAPGKEREGVSCIRCSGGSTYYADSVKGRFTISSDNSKNTVYLQMNSLRPEDTAVYYCAASIVPRSKLEPYEYDAWGQGTLVTVSS
Turning to B9, the “IC50 (read off the curve)” value in the assay with cAng2 [14] was roughly 50 nM; with hAng2 [15], roughly 20 nM; with mAng2 [16] it was roughly 30 nM. Also, the “IC50 (read off the curve), hAng2 mediated HUVEC survival” value in the assay with hAng2 [17] was roughly 30 nM.

B10: 1D01 (VHH)
VHH: B9 VHH with P14A, P41A, G55D, S75A, R87K, L119Q
For the molecule B10, the “IC50 (read off the curve)” value with hAng2 [18] is roughly 8 nM; with cAng2 [19], roughly 10 nM; with mAng2 [20], roughly 10 nM; with cAng2 [21] it was roughly 10 nM; with mAng2 [22], roughly 10 nM; with mAng2 [23], roughly 10 nM. For the same molecule, in the assay with cAng2 [24], the “IC50 (read off the curve)” value is roughly 10 nM.

B11: 1D01 (VHH)
VHH: B9 VHH with P14A, P41A, G55D, S75A, R87K, L119Q
notes: also called 01D01
Regarding B11, the “IC50 (read off the curve)” value with mAng2 [1] was roughly 20 nM; with hAng2 [2] it was roughly 10 nM; with cAng2 [3], roughly 8 nM.

The values are drawn from US20170247475A1 (Boehringer Ingelheim, published 2017).
